Laboratory results as given in publication PMC12723162, “Alphaherpesvirus pUL21 homologs use non-canonical sequences to compete with cellular adaptors for protein phosphatase 1 binding” (The Journal of Biological Chemistry, 2025).

System: endogenous PP1α
Experiment: GFP affinity capture / co-IP of endogenous PP1α with GFP-tagged bait
Assay type: binding, human
Details: HEK 293T cells, 24 h post-transfection, GFP-Trap, immunoblot; representative of two independent experiments
Text: Bacterial expression plasmids encoding the mouse PP1γ catalytic domain (residues 7–300)-H6 and pUL21-H6, and mammalian expression vectors encoding pUL21(FV242AA)-GFP, pORF38-GFP and pORF38(FV255AA)-GFP, were described previously ([23]). We note that the mouse and human PP1γ catalytic domains share 100% amino acid identity. pORF38-NLT-H6 was generated by sub-cloning residues 1 to 263 of ORF38 into the vector pOPTnH ([52]). pUL21-RVxF-H6 was generated by inserting the mutations A237V and V239F into pUL21-H6 by QuikChange site-directed mutagenesis. Human PP1α was cloned from HeLa cell cDNA into a vector derived from pF5K (Promega) with an N-terminal Myc epitope tag via restriction-based cloning, and point mutations were introduced into Myc-PP1α by QuikChange mutagenesis. A plasmid encoding pUL21-GFP was generated by sub-cloning a codon-optimized synthetic UL21 gene (GeneArt) into pEGFP-N1 (Clontech), yielding an identical pUL21-GFP amino acid sequence as used in ([23]). pUL21-ΔL, -ΔR and -ΔLR were generated from this vector via inverse PCR, and point mutations were introduced via QuikChange mutagenesis.
Mycoplasma-free human embryonic kidney 293T (HEK 293T) cells (American Type Culture Collection #CRL-3216) were maintained in Dulbecco’s modified Eagle’s medium (DMEM) with high glucose (Merck), supplemented with 10% (v/v) heat-inactivated fetal calf serum and 2 mM L-glutamine (complete DMEM) in a humidified 5% CO2 atmosphere at 37 °C. The identity of the cell line was not independently confirmed.
Monolayers of HEK 293T cells were transfected with 7.7 μg of DNA per 9 cm dish, using 18 μg/ml 25 kDa branched polyethylenimine (Merck) or using TransIt-LT1 (Mirus) in accordance with the manufacturer’s instructions. Cells were harvested 24 h post-transfection and incubated for 30 min in ice-cold 10 mM Tris pH 7.5, 150 mM NaCl, 0.5 mM EDTA, 0.5% Igepal CA-630 (a.k.a. NP-40), 1% (v/v) EDTA-free protease inhibitor cocktail (Merck) before clarification at 21,000×g for 10 min at 4 °C. Lysate protein concentrations were measured using the bicinchoninic acid (BCA) assay (Pierce) and normalized before affinity capture using GFP-Trap resin (ChromoTek) following the manufacturer’s protocol. Samples were eluted by heating the resin to 95 °C for 5 min in 45 μl 2 × SDS-PAGE loading buffer. Proteins were separated by SDS-PAGE and transferred to 0.45 μm nitrocellulose membranes (PerkinElmer or Cytiva). Membranes were stained with Ponceau S and imaged using a G:Box XX9 (Syngene) before blocking in Tris-buffered saline with 0.1% TWEEN-20 (TBS-T) supplemented with 5% (w/v) non-fat milk powder. Immunoblotting was performed using antibodies diluted in blocking buffer as listed below, and immunoblots were imaged using an Odyssey CLx (LI-COR Biosciences). Densitometry was performed using Image Studio Lite version 5.2 (LI-COR Biosciences), and statistical tests were performed using Prism version 7 (GraphPad).
The following primary antibodies and dilutions were used for immunoblotting: rabbit anti-CERT 1:10,000 (Abcam #Ab72536), mouse anti-PP1α 1:1000 (Santa Cruz #sc-271762), mouse anti-Myc 1:4000 (Millipore #05–724), rat anti-tubulin (clone YL1/2) hybridoma supernatant 1:40 ([54]). The anti-CERT antibody was validated using a knock-out cell line. The anti-PP1α antibody has been validated by siRNA knockdown ([55]). The anti-Myc antibody was validated using control experiments lacking Myc-tagged transfected constructs ([56]). The anti-tubulin antibody has been validated by immunofluorescence microscopy, immuno-electron microscopy and radiolabeled immunosorbent assay ([54]). Secondary antibodies from LI-COR Biosciences were diluted 1:10,000 as follows: IRDye 680RD goat anti-rat (#926–68029) and goat anti-mouse (#926–68020), or IRDye 800CW goat anti-rabbit (#926–32221).

Molecule	Co-IP of endogenous PP1α
H247F (protein, left off: GFP (from the vector pEGFP-N1), end not stated, kept) MELSYATTMHYRDVVFYVTTDRNRAYFVCGGCVYSVGRPCASQPGEIAKFGLVVRGTGPDDRVVANYVRSELRQRGLQDVRPIGEDEVFLDSVCLLNPNVSSELDVINTNDVEVLDECLAEYCTSLRTSPGVLISGLRVRAQDRIIELFEHPTIVNVSSHFVYTPSPYVFALAQAHLPRLPSSLEALVSGLFDGIPAPRQPLDAHNPRTDVVITGRRAPRPIAGSGAGSGGAGAKRATVSEFVQVKFIDRVGPAGVSPAPPPNNTDSSSLVPGAQDSAPPGPTLRELWWVFYAADRALEEPRADSGLTREEVRAVRGFREQAWKLFGSAGAPRAFIGAALGLSPLQKLAVYYYIIHRERRLSPFPALVRLVGRYTQRHGLYVPRPDDPVLADAINGLFRDALAAGTTAEQLLMFDLLPPKDVPVGSDVQADSTALLRFIESQRLAVPGGVISPEHVAYLGAFLSVLYAGRGRMSAATHTARLTGVTSLVLAVGDVDRLSAFDRGAAGAASRTRAAGYLDVLLTVRLARSQHGQSV	co-precipitated more PP1α than did WT pUL21-GFP
VV211AA (protein, left off: GFP (from the vector pEGFP-N1), end not stated, kept) MELSYATTMHYRDVVFYVTTDRNRAYFVCGGCVYSVGRPCASQPGEIAKFGLVVRGTGPDDRVVANYVRSELRQRGLQDVRPIGEDEVFLDSVCLLNPNVSSELDVINTNDVEVLDECLAEYCTSLRTSPGVLISGLRVRAQDRIIELFEHPTIVNVSSHFVYTPSPYVFALAQAHLPRLPSSLEALVSGLFDGIPAPRQPLDAHNPRTDAAITGRRAPRPIAGSGAGSGGAGAKRATVSEFVQVKHIDRVGPAGVSPAPPPNNTDSSSLVPGAQDSAPPGPTLRELWWVFYAADRALEEPRADSGLTREEVRAVRGFREQAWKLFGSAGAPRAFIGAALGLSPLQKLAVYYYIIHRERRLSPFPALVRLVGRYTQRHGLYVPRPDDPVLADAINGLFRDALAAGTTAEQLLMFDLLPPKDVPVGSDVQADSTALLRFIESQRLAVPGGVISPEHVAYLGAFLSVLYAGRGRMSAATHTARLTGVTSLVLAVGDVDRLSAFDRGAAGAASRTRAAGYLDVLLTVRLARSQHGQSV	PP1α coIP was abolished
A232K (protein, left off: GFP (from the vector pEGFP-N1), end not stated, kept) MELSYATTMHYRDVVFYVTTDRNRAYFVCGGCVYSVGRPCASQPGEIAKFGLVVRGTGPDDRVVANYVRSELRQRGLQDVRPIGEDEVFLDSVCLLNPNVSSELDVINTNDVEVLDECLAEYCTSLRTSPGVLISGLRVRAQDRIIELFEHPTIVNVSSHFVYTPSPYVFALAQAHLPRLPSSLEALVSGLFDGIPAPRQPLDAHNPRTDVVITGRRAPRPIAGSGAGSGGKGAKRATVSEFVQVKHIDRVGPAGVSPAPPPNNTDSSSLVPGAQDSAPPGPTLRELWWVFYAADRALEEPRADSGLTREEVRAVRGFREQAWKLFGSAGAPRAFIGAALGLSPLQKLAVYYYIIHRERRLSPFPALVRLVGRYTQRHGLYVPRPDDPVLADAINGLFRDALAAGTTAEQLLMFDLLPPKDVPVGSDVQADSTALLRFIESQRLAVPGGVISPEHVAYLGAFLSVLYAGRGRMSAATHTARLTGVTSLVLAVGDVDRLSAFDRGAAGAASRTRAAGYLDVLLTVRLARSQHGQSV	did not dramatically alter PP1α coIP
R250E (protein, left off: GFP (from the vector pEGFP-N1), end not stated, kept) MELSYATTMHYRDVVFYVTTDRNRAYFVCGGCVYSVGRPCASQPGEIAKFGLVVRGTGPDDRVVANYVRSELRQRGLQDVRPIGEDEVFLDSVCLLNPNVSSELDVINTNDVEVLDECLAEYCTSLRTSPGVLISGLRVRAQDRIIELFEHPTIVNVSSHFVYTPSPYVFALAQAHLPRLPSSLEALVSGLFDGIPAPRQPLDAHNPRTDVVITGRRAPRPIAGSGAGSGGAGAKRATVSEFVQVKHIDEVGPAGVSPAPPPNNTDSSSLVPGAQDSAPPGPTLRELWWVFYAADRALEEPRADSGLTREEVRAVRGFREQAWKLFGSAGAPRAFIGAALGLSPLQKLAVYYYIIHRERRLSPFPALVRLVGRYTQRHGLYVPRPDDPVLADAINGLFRDALAAGTTAEQLLMFDLLPPKDVPVGSDVQADSTALLRFIESQRLAVPGGVISPEHVAYLGAFLSVLYAGRGRMSAATHTARLTGVTSLVLAVGDVDRLSAFDRGAAGAASRTRAAGYLDVLLTVRLARSQHGQSV	dramatically reduced binding
A218E (protein, left off: GFP (from the vector pEGFP-N1), end not stated, kept) MELSYATTMHYRDVVFYVTTDRNRAYFVCGGCVYSVGRPCASQPGEIAKFGLVVRGTGPDDRVVANYVRSELRQRGLQDVRPIGEDEVFLDSVCLLNPNVSSELDVINTNDVEVLDECLAEYCTSLRTSPGVLISGLRVRAQDRIIELFEHPTIVNVSSHFVYTPSPYVFALAQAHLPRLPSSLEALVSGLFDGIPAPRQPLDAHNPRTDVVITGRREPRPIAGSGAGSGGAGAKRATVSEFVQVKHIDRVGPAGVSPAPPPNNTDSSSLVPGAQDSAPPGPTLRELWWVFYAADRALEEPRADSGLTREEVRAVRGFREQAWKLFGSAGAPRAFIGAALGLSPLQKLAVYYYIIHRERRLSPFPALVRLVGRYTQRHGLYVPRPDDPVLADAINGLFRDALAAGTTAEQLLMFDLLPPKDVPVGSDVQADSTALLRFIESQRLAVPGGVISPEHVAYLGAFLSVLYAGRGRMSAATHTARLTGVTSLVLAVGDVDRLSAFDRGAAGAASRTRAAGYLDVLLTVRLARSQHGQSV	PP1α coIP was abolished
A237V (protein, left off: GFP (from the vector pEGFP-N1), end not stated, kept) MELSYATTMHYRDVVFYVTTDRNRAYFVCGGCVYSVGRPCASQPGEIAKFGLVVRGTGPDDRVVANYVRSELRQRGLQDVRPIGEDEVFLDSVCLLNPNVSSELDVINTNDVEVLDECLAEYCTSLRTSPGVLISGLRVRAQDRIIELFEHPTIVNVSSHFVYTPSPYVFALAQAHLPRLPSSLEALVSGLFDGIPAPRQPLDAHNPRTDVVITGRRAPRPIAGSGAGSGGAGAKRVTVSEFVQVKHIDRVGPAGVSPAPPPNNTDSSSLVPGAQDSAPPGPTLRELWWVFYAADRALEEPRADSGLTREEVRAVRGFREQAWKLFGSAGAPRAFIGAALGLSPLQKLAVYYYIIHRERRLSPFPALVRLVGRYTQRHGLYVPRPDDPVLADAINGLFRDALAAGTTAEQLLMFDLLPPKDVPVGSDVQADSTALLRFIESQRLAVPGGVISPEHVAYLGAFLSVLYAGRGRMSAATHTARLTGVTSLVLAVGDVDRLSAFDRGAAGAASRTRAAGYLDVLLTVRLARSQHGQSV	co-precipitated more PP1α than did WT pUL21-GFP
Q174R (protein, left off: GFP (from the vector pEGFP-N1), end not stated, kept) MELSYATTMHYRDVVFYVTTDRNRAYFVCGGCVYSVGRPCASQPGEIAKFGLVVRGTGPDDRVVANYVRSELRQRGLQDVRPIGEDEVFLDSVCLLNPNVSSELDVINTNDVEVLDECLAEYCTSLRTSPGVLISGLRVRAQDRIIELFEHPTIVNVSSHFVYTPSPYVFALARAHLPRLPSSLEALVSGLFDGIPAPRQPLDAHNPRTDVVITGRRAPRPIAGSGAGSGGAGAKRATVSEFVQVKHIDRVGPAGVSPAPPPNNTDSSSLVPGAQDSAPPGPTLRELWWVFYAADRALEEPRADSGLTREEVRAVRGFREQAWKLFGSAGAPRAFIGAALGLSPLQKLAVYYYIIHRERRLSPFPALVRLVGRYTQRHGLYVPRPDDPVLADAINGLFRDALAAGTTAEQLLMFDLLPPKDVPVGSDVQADSTALLRFIESQRLAVPGGVISPEHVAYLGAFLSVLYAGRGRMSAATHTARLTGVTSLVLAVGDVDRLSAFDRGAAGAASRTRAAGYLDVLLTVRLARSQHGQSV	PP1α coIP was abolished
